Data on eight molecules can be found in PMC11457862, “Engineered cytokine/antibody fusion proteins improve IL-2 delivery to pro-inflammatory cells and promote antitumor activity” (JCI Insight, 2024).

Substitutions are numbered along the chain they refer to. Names may count otherwise.

In assay [1] the target is T1, biotinylated mouse IL-2Rα (Mus musculus, UniProt P01590, biotin).
T1 construct: mouse IL-2 receptor alpha; the supplementary methods describe only the human constructs; probably an ectodomain with BAP like them; also called mIL-2Rα
T1 sequence (P01590 22-268): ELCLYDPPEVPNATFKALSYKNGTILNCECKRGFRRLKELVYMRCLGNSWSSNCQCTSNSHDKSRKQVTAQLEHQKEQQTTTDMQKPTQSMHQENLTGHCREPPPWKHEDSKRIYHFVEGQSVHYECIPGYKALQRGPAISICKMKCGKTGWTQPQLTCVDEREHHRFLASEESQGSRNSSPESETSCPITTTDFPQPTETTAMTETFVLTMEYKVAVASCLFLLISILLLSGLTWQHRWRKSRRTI
As to the kind of experiment: BLI; same set-up as a7; equilibrium titration, first-order fit (Supplemental Figure 6G,H, Supplemental Table 1). To be noted: both partners purified.

Assay [2] deals with T2, biotinylated mouse IL-2Rβ (Mus musculus, UniProt P16297, biotin).
T2 construct: mouse IL-2 receptor beta; the supplementary methods describe only the human constructs; probably an ectodomain with BAP like them; also called mIL-2Rβ
T2 sequence (P16297 27-539): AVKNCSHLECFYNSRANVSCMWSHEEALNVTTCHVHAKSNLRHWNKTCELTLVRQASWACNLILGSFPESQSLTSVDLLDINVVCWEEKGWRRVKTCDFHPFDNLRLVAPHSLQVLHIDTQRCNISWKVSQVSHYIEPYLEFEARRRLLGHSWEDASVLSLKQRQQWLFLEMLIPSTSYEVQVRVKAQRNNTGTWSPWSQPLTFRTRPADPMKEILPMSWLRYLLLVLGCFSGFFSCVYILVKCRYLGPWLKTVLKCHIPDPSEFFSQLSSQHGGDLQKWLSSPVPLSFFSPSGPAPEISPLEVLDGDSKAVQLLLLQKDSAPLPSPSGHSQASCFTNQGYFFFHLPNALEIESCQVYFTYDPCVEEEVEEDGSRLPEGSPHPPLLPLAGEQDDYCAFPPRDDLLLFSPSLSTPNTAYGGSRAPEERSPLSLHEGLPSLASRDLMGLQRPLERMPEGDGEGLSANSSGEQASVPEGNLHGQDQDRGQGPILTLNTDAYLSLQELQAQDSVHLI
The description is as above. To be noted: both partners purified.

In assay [3] the target is T3, biotinylated human IL-2 (amino acids 1-133, C-terminal biotin acceptor peptide) (human, UniProt P60568, biotin on the biotin acceptor peptide (BirA ligase)).
T3 construct: also called immobilized IL-2; hIL-2; source: HEK 293F, purified (Ni-NTA, biotinylated with BirA, SEC)
The experiment in a line: BLI; same set-up as a3; equilibrium titration, first-order fit (Supplemental Figure 4A-C, Supplemental Table 4). To be noted: both partners purified. Background: In BLI a coated tip is dipped into the sample, and binding shifts an interference pattern.

Assay [4] concerns the target T3, biotinylated human IL-2 (amino acids …). As to the kind of experiment: BLI; same set-up as a1; equilibrium titration of the response at the end of the association phase, first-order fit (Figures 2 and 3, Supplemental Table 1). The conditions noted are these: both partners purified.
Assay [5] has the same target. As to the kind of experiment: BLI; biotinylated human IL-2 or IL-2Rβ on streptavidin tips; engineered 602 IC variants and controls in PBSA; kinetic fit, 1:1 binding model (Supplemental Figure 5, Supplemental Table 4). The conditions noted are these: both partners purified.
Assay [6] has the same target. As to the kind of experiment: BLI; biotinylated human IL-2, IL-2Rα or IL-2Rβ on streptavidin tips (Octet Red96); soluble analyte in PBSA (PBS pH 7.2, 0.1% BSA), 300 s association; kinetic fit, 1:1 binding model; IL-2/602 Cx 2:1 by the legend (Supplemental Figure 2, Supplemental Table 1). The conditions noted are these: both partners purified.
Assay [7] has the same target. The experiment in a line: flow cytometry on cells; yeast displaying scFv incubated with 5 nM biotinylated IL-2 and titrated IL-2Rα in PBE buffer, 2 h, room temperature; detected with Alexa Fluor 647 streptavidin. The conditions noted are these: one partner purified. For orientation: Flow cytometry measures light scatter and fluorescence of single cells or particles in a stream.

For assay [8] the target is unchanged. As to the kind of experiment: BLI; same set-up as a5; equilibrium titration, first-order fit (Supplemental Figure 6C,D, Supplemental Table 5). To be noted: both partners purified.
The target is the same in assay [9]. The experiment in a line: BLI; biotinylated human IL-2 on streptavidin tips; scFvs, IL-2/antibody complexes (2:1) and ICs in PBSA; kinetic fit, 1:1 binding model (Supplemental Figure 6A,B, Supplemental Table 5). The conditions noted are these: both partners purified.
The target of the next assay is T4, human IL-2 (human, UniProt P60568).
T4 construct: Used soluble, immobilised on BLI tips and in the crystals; also called hIL-2; interleukin-2
As to the kind of experiment: BLI; scFvs with IL-2, kinetics; who was immobilised is not told in what was shown. The conditions noted are these: both partners purified.

B1: anti-human IL-2 antibody 602 (MAB602), recombinant mouse IgG2a kappa (antibody, V domains shown)
VH: EVQLQESGPGLVAPSQSLSITCTVSGFSLTNYDISWIRQPPGKGLEWLGVIWTGGGTNYNSGFMSRLSITKDNSKSQVFLKMNSLQTDDTAIYYCVRQGRTPYWGQGTLVTVSA
VL: DIQVTQSPSSLSVSLGDRVTITCKASKDIYNRLAWYQQKPGNAPRLLISGATSLETGVPSRFSGSGSGKDYTLTITSLQTEDVATYYCQQFWGTPYTFGGGTKLEIK
notes: mouse IgG2a heavy chain constant region; mouse kappa light chain constant region; mouse IgG2a kappa; source: HEK 293F, transient co-transfection, purified (Protein G, SEC); copies: 2 + 2
The term Kd denotes a measure of binding affinity in units of concentration. For orientation: koff means a measure of how fast the partners let go of each other. The low end stands for a long-lived complex, the high end for a short-lived complex. Broadly, the kon is a measure of how fast the partners come together. Read a low kon as slower complex formation. For B1, the Kd was greater than 10 µM in assay [1]; greater than 10 µM in assay [2]; 3.7 ± 7.4 nM in [3]; 6.3 ± 5.2 nM in assay [4]; 0.044 ± 0.05 nM in assay [5]; 0.13 ± 0.02 nM in [6]. The koff in assay [5] was 2.8e-05 s⁻¹; in [6], 5.1e-05 s⁻¹. Moreover, the kon came to 642000 M⁻¹ s⁻¹ in assay [5] and 382000 M⁻¹ s⁻¹ in assay [6].

B2: yeast-displayed 602 scFv variant H2 (scFv, V domains shown)
VH: B1 VH with T101S
VL: B1 VL with Y30H, F91V
notes: also called H2 scFv; not shown: Aga2, N-terminal, kept
As for B2, in assay [7], the binding result is “binds”.

B3: yeast-displayed 602 scFv variant A8 (scFv, V domains shown)
VH: B1 VH
VL: B1 VL with G93D, T97S
notes: also called A8 scFv; not shown: Aga2, N-terminal, kept
Regarding B3, in assay [7], the binding result is “binds”.

B4: F10 scFv (VH-[G4S]3-VL), soluble (scFv, V domains shown)
VH: B1 VH with T101S
VL: B1 VL with F91S, G93D
notes: the scFv chain of PDB 8SOW; source: HEK 293F, purified (Ni-NTA, SEC)
Take B4: the Kd in assay [8] came out at 6.12 ± 5.66 nM. In assay [9], this molecule registered a Kd of 0.34 ± 0.01 nM, a koff of 0.000188 s⁻¹ and a kon of 563000 M⁻¹ s⁻¹.

B5: yeast-displayed 602 scFv variant E10 (scFv, V domains shown)
VH: B1 VH with T101A
VL: B1 VL with F91L
notes: also called E10 scFv; not shown: Aga2, N-terminal, kept
In the case of B5, the binding result in assay [7] is “binds”.

B6: 602 scFv (VH-[G4S]3-VL), soluble (scFv, V domains shown)
VH: B1 VH
VL: B1 VL
notes: the scFv chain of PDB 8SOZ; source: HEK 293F, purified (Ni-NTA, SEC)
B6 displayed a Kd in assay [8] of 9 ± 8.59 nM. In assay [9], this molecule came in with a Kd of 1.94 ± 0.02 nM, a koff of 0.00067 s⁻¹ and a kon of 361000 M⁻¹ s⁻¹.

B7: F10 scFv (scFv, V domains shown)
VH: B1 VH with T101S
VL: B1 VL with F91S, G93D
notes: as the scFv of m13 with the stated changes; numbers count on the scFv (T99S in CDR3H, F91S and G93D in CDR3L, Kabat); soluble scFv used for BLI and for the crystal structure; also called variant F10
As for B7, the “fold reduction in dissociation rate against 602 scFv” value with human IL-2 is 3.6 fold.

B8: yeast-displayed 602 scFv variant C5 (scFv, V domains shown)
VH: B1 VH
VL: B1 VL with F91T
notes: also called C5 scFv; not shown: Aga2, N-terminal, kept
Turning to B8, the binding result in [7] was “binds”.
